We go through 14 molecules from patent publication US20170290876A1 (Novartis, published 2017).

Usually Kd stands for the free concentration of one partner at which half of the binding sites on the other are occupied at equilibrium, for simple one-to-one binding. High values mean a looser complex, low ones a tighter complex. As a reminder, the koff is the first-order rate constant of dissociation. A word on the kon: it is a measure of how fast the partners come together. Lower therefore signals slow association.

For assay [1], the target named is T1, human Factor P (human, UniProt P27918 28-469, biotinylated (site not stated)).
T1 construct: also called Factor P-biotin; Hu factor P-biotin
T1 sequence (P27918 28-469 limits assumed): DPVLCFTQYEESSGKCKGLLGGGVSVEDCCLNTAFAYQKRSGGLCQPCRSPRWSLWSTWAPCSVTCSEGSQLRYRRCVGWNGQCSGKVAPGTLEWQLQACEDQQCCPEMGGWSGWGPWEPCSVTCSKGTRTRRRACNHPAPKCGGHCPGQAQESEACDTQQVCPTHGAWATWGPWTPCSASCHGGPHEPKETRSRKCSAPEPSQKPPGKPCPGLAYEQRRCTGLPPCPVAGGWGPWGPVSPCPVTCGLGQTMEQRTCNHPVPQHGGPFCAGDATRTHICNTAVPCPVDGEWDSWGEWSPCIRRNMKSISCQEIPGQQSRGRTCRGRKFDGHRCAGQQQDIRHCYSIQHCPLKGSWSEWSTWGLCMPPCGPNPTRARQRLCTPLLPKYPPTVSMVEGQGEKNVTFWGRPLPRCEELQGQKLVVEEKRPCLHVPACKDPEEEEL
The assay is described as follows: Biacore SPR, Hu factor P-biotin, 37 C. A general note: SPR reads the build-up and loss of mass on a sensor chip optically.

The target in assay [2] is T1, human Factor P. The experiment in a line: Biacore SPR; affinity of NVS71T against untagged NVS71.
Assay [3] concerns the target T1, human Factor P. The experiment in a line: Biacore SPR, Factor P-biotin, 25 C.
For assay [4], the target named is T2, human VEGF (human, UniProt P15692 207-395, biotinylated (site not stated)).
T2 construct: Biotinylated human VEGF generated internally; also called hVEGF; hVEGF-biotin
T2 sequence: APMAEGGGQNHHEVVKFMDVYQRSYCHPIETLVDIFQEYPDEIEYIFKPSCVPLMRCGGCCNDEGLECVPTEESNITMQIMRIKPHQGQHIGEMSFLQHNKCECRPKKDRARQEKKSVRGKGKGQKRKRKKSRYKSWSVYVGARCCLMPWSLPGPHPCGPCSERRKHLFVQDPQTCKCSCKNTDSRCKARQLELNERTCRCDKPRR
The assay is described as follows: Biacore SPR, hVEGF-biotin, 37 C.

Assay [5] deals with T2, human VEGF. The experiment in a line: Biacore SPR, human VEGF.
Description: (§1) In order to determine target kinetics, two different formats were utilized. […] The second format is an anti-fab capture method in which the fab protein samples are captured and the target proteins flowed over at various concentrations.
(§2) The sample compartment which includes the analytes, ligands, and regeneration buffer, is kept at 15° C. All other running conditions were carried out at either 25° C. or 37° C. in 1×HBSE+P buffer. […] Data was collected at 10 Hz and analyzed using the Biacore T200 Evaluation Software (GE Healthcare®). This program uses a global fitting analysis method for the determination of rate and affinity constants for each interaction.
For assay [6], the target named is T2, human VEGF. The experiment in a line: Biacore SPR, hVEGF-biotin, 25 C.
Assay [7] deals with T2, human VEGF. The assay is described as follows: Biacore SPR, hVEGF.
The target of assay [8] is T2, human VEGF. The assay is described as follows: Biacore SPR, Hu VEGF-biotin, 37 C.
Description: as §1, §2
Assay [9] deals with T2, human VEGF. The experiment in a line: Biacore SPR, Hu VEGF-biotin, 25 C.
Description: as §1, §2
Assay [10] has as its target T3, IL-1β (human, UniProt P01584 117-269, biotinylated (site not stated)).
T3 construct: also called IL1β-biotin
The experiment in a line: Biacore SPR, IL1β-biotin, 25 C.

Assay [11] addresses T4, human TNFα (human, UniProt P01375 77-233, biotinylated (site not stated)).
T4 construct: also called TNFα-biotin; Hu TNFα-biotin
The assay is described as follows: Biacore SPR, Hu TNFα-biotin, 37 C.

Assay [12] addresses T4, human TNFα. The assay is described as follows: Biacore SPR; affinity of NVS73T against untagged NVS73.
For assay [13], the target named is T4, human TNFα. The experiment in a line: Biacore SPR, TNFα-biotin, 37 C.
Description: as §1, §2

T4 sequence (P01375 77-233 limits assumed): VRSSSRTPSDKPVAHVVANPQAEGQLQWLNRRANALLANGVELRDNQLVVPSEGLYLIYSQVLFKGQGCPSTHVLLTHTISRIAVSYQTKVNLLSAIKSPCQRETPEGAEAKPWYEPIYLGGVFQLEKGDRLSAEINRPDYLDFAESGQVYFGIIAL

B1: NVS71 (Fab, V domains shown)
VH: EVQLVQSGAEVKKPGSSVKVSCKASGGTFSSYAISWVRQAPGQGLEWMGRIIPIFGTANYAQKFQGRVTITADESTSTAYMELSSLRSEDTAVYYCARHGGYSFDSWGQGTLVTVSS
VL: SYELTQPPSVSVAPGQTARISCSGDNLGSKYVDWYQQKPGQAPVLVIYSDNNRPSGIPERFSGSNSGNTATLTISGTQAEDEADYYCQTYTSGNNYLVFGGGTKLTVLG
notes: Untagged anti-Factor P Fab
In the case of B1, in [1], the affinity, expressed as Kd, was 543 pM; the koff amounted to 0.00161 s⁻¹; the kon came to 2.96e+06 M⁻¹ s⁻¹.

B2: NVS71T (Fab, V domains shown)
VH: EVQLVQSGAEVKKPGSSVKVSCKASGGTFSSYAISWVRQAPGQGLEWMGRIIPIFGTANYAQKFQGRVTITADESTSTAYMELSSLRSEDTAVYYCARHGGYSFDSWGQGTLVTVSS
VL: SYELTQPPSVSVAPGQTARISCSGDNLGSKYVDWYQQKPGQAPVLVIYSDNNRPSGIPERFSGSNSGNTATLTISGTQAEDEADYYCQTYTSGNNYLVFGGGTKLTVLG
notes: Anti-Factor P Fab with HA tag at heavy chain C-terminus
As to B2, the Fold improvement in [2] was found to be 5.7 fold. In addition, in [3], the Kd came out at 95.5 pM, the koff came out at 0.000412 s⁻¹ and the kon amounted to 4.31e+06 M⁻¹ s⁻¹. In [1], this molecule displayed a Kd of 95.5 pM, a koff of 0.000412 s⁻¹ and an on-rate (kon) of 4.31e+06 M⁻¹ s⁻¹.

B3: NVS1e (Fab)
heavy: EVQLVESGGGLVQPGGSLRLSCTASGFSLTDYYYMTWVRQAPGKGLEWVGFIDPDDDPYYATWAKGRFTISRDNSKNTLYLQMNSLRAEDTAVYYCAGGDHNSGWGLDIWGQGTLVTVSSASTKGPSVFPLAPSSKSTSGGTAALGCLVKDYFPEPVTVSWNSGALTSGVHTFPAVLQSSGLYSLSSVVTVPSSSLGTQTYICNVNHKPSNTKVDKRVEPKSCGS
light: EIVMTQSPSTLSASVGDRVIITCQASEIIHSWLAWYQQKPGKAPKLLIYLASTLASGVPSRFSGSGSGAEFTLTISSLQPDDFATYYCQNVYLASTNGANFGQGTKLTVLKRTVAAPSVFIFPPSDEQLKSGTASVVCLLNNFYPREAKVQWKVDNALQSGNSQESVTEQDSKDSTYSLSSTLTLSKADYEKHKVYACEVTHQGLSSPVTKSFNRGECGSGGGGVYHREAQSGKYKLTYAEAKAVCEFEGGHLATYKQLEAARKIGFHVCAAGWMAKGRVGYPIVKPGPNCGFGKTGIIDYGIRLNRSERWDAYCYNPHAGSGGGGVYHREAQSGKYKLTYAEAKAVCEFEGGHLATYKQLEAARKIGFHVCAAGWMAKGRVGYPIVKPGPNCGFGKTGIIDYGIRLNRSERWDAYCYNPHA
notes: NVS4 with two tandem HA tags at the light chain C-terminus
In the case of B3, in assay [4], binding was put at a Kd of 0.9 pM, the koff is 1.26e-05 s⁻¹ and the kon is 1.4e+07 M⁻¹ s⁻¹.

B4: NVS37 (Fab)
heavy: EVQLVESGGGLVQPGGSLRLSCTASGFSLTDYYYMTWVRQAPGKGLEWVGFIDPDDDPYYATWAKGRFTISRDNSKNTLYLQMNSLRAEDTAVYYCAGGDHNSGWGLDIWGQGTLVTVSSASTKGPSVFPLAPSSKSTSGGTAALGCLVKDYFPEPVTVSWNSGALTSGVHTFPAVLQSSGLYSLSSVVTVPSSSLGTQTYICNVNHKPSNTKVDKRVEPKSCGSGGGGVYHREAQSGKYKLTYAEAKAVCEFEGGHLCTYKQLEAARKIGFHVCAAGWMAKGRVGYPIVKPGPNCGFGKTGIIDYGIRLNRSERWDAYCCNPHA
light: EIVMTQSPSTLSASVGDRVIITCQASEIIHSWLAWYQQKPGKAPKLLIYLASTLASGVPSRFSGSGSGAEFTLTISSLQPDDFATYYCQNVYLASTNGANFGQGTKLTVLKRTVAAPSVFIFPPSDEQLKSGTASVVCLLNNFYPREAKVQWKVDNALQSGNSQESVTEQDSKDSTYSLSSTLTLSKADYEKHKVYACEVTHQGLSSPVTKSFNRGEC
notes: NVS4 Fab with HA11.1 tag
In [5], B4 returned a Kd of 3.07 pM, a koff of 7.21e-05 s⁻¹ and a kon of 2.35e+07 M⁻¹ s⁻¹.

B5: NVS1g (Fab)
heavy: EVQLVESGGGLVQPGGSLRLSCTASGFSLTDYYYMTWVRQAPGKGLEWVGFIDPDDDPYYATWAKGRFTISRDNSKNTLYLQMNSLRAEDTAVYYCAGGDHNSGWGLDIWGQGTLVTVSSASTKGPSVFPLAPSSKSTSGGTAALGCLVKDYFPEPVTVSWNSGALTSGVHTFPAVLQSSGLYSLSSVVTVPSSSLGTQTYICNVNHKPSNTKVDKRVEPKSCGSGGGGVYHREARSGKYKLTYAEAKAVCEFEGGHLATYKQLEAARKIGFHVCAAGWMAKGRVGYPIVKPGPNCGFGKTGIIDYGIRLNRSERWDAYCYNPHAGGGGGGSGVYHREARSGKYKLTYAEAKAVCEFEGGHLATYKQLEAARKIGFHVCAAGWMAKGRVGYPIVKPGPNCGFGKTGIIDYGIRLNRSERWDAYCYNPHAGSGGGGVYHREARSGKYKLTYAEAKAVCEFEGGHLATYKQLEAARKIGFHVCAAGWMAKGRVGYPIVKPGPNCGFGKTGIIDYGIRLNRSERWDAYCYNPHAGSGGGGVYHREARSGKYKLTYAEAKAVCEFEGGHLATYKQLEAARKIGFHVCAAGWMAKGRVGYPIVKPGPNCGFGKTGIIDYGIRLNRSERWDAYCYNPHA
light: EIVMTQSPSTLSASVGDRVIITCQASEIIHSWLAWYQQKPGKAPKLLIYLASTLASGVPSRFSGSGSGAEFTLTISSLQPDDFATYYCQNVYLASTNGANFGQGTKLTVLKRTVAAPSVFIFPPSDEQLKSGTASVVCLLNNFYPREAKVQWKVDNALQSGNSQESVTEQDSKDSTYSLSSTLTLSKADYEKHKVYACEVTHQGLSSPVTKSFNRGEC
notes: NVS4 with four tandem HA tags at the heavy chain C-terminus
Turning to B5, in [6], binding was characterised by a dissociation constant (Kd) of 5.46 pM and the kon stood at 614000 M⁻¹ s⁻¹.

B6: NVS36 (Fab)
heavy: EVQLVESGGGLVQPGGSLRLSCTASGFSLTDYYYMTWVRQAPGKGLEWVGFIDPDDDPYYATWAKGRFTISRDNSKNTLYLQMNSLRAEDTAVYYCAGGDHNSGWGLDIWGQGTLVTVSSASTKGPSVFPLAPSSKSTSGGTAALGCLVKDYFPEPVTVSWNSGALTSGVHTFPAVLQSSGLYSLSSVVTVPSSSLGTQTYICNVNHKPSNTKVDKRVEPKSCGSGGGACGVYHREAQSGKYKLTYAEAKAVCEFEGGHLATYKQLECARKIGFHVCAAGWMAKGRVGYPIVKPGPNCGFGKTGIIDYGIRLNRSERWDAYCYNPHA
light: EIVMTQSPSTLSASVGDRVIITCQASEIIHSWLAWYQQKPGKAPKLLIYLASTLASGVPSRFSGSGSGAEFTLTISSLQPDDFATYYCQNVYLASTNGANFGQGTKLTVLKRTVAAPSVFIFPPSDEQLKSGTASVVCLLNNFYPREAKVQWKVDNALQSGNSQESVTEQDSKDSTYSLSSTLTLSKADYEKHKVYACEVTHQGLSSPVTKSFNRGEC
notes: NVS4 Fab with HA11 tag; also called NVS4 linked to tag NVS-A
In [7], B6 registered an equilibrium dissociation constant (Kd) of 4.13 pM, a koff of 0.000257 s⁻¹ and a kon of 6.23e+07 M⁻¹ s⁻¹. In assay [5], the Kd turned out to be 0.656 pM, the koff was 2.5e-05 s⁻¹ and the kon worked out at 3.81e+07 M⁻¹ s⁻¹.

B7: NVS1h (Fab)
heavy: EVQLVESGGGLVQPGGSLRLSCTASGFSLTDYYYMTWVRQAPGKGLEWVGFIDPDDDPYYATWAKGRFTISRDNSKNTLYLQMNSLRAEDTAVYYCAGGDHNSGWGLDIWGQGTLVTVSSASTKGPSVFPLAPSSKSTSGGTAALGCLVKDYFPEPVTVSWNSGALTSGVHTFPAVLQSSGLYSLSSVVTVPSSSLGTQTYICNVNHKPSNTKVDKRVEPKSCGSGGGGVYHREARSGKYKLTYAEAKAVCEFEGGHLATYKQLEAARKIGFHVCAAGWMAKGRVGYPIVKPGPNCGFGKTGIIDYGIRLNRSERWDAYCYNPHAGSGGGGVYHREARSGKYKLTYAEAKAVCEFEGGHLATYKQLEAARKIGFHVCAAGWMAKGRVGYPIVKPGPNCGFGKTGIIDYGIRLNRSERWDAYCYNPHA
light: EIVMTQSPSTLSASVGDRVIITCQASEIIHSWLAWYQQKPGKAPKLLIYLASTLASGVPSRFSGSGSGAEFTLTISSLQPDDFATYYCQNVYLASTNGANFGQGTKLTVLKRTVAAPSVFIFPPSDEQLKSGTASVVCLLNNFYPREAKVQWKVDNALQSGNSQESVTEQDSKDSTYSLSSTLTLSKADYEKHKVYACEVTHQGLSSPVTKSFNRGEC
notes: NVS4 with tandem HA tags at the heavy chain C-terminus
In assay [6], B7 displayed a Kd of 0.558 pM, a koff of 8.76e-06 s⁻¹ and a kon of 1.57e+07 M⁻¹ s⁻¹.

B8: NVS82 (antibody, human IgG1, kappa, L234A L235A)
heavy: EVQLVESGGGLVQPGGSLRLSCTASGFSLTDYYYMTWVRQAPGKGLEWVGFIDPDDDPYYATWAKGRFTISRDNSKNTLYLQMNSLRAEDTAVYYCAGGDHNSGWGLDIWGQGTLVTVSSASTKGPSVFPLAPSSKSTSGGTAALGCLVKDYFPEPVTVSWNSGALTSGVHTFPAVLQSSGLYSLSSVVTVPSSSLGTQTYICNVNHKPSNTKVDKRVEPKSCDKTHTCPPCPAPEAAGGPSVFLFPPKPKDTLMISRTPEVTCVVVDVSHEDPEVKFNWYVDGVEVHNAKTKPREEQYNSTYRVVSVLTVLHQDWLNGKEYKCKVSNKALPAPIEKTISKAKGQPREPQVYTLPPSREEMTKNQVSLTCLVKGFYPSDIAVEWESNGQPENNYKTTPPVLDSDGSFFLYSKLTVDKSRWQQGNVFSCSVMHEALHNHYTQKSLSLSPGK
light: EIVMTQSPSTLSASVGDRVIITCQASEIIHSWLAWYQQKPGKAPKLLIYLASTLASGVPSRFSGSGSGAEFTLTISSLQPDDFATYYCQNVYLASTNGANFGQGTKLTVLKRTVAAPSVFIFPPSDEQLKSGTASVVCLLNNFYPREAKVQWKVDNALQSGNSQESVTEQDSKDSTYSLSSTLTLSKADYEKHKVYACEVTHQGLSSPVTKSFNRGEC
notes: also called IgG of NVS4
In assay [8], B8 had a Kd of 7.64 pM, a koff of 2.34e-05 s⁻¹ and an association rate constant (kon) of 3.06e+06 M⁻¹ s⁻¹.

B9: NVS1j (Fab)
heavy: EVQLVESGGGLVQPGGSLRLSCTASGFSLTDYYYMTWVRQAPGKGLEWVGFIDPDDDPYYATWAKGRFTISRDNSKNTLYLQMNSLRAEDTAVYYCAGGDHNSGWGLDIWGQGTLVTVSSASTKGPSVFPLAPSSKSTSGGTAALGCLVKDYFPEPVTVSWNSGALTSGVHTFPAVLQSSGLYSLSSVVTVPSSSLGTQTYICNVNHKPSNTKVDKRVEPKSC
light: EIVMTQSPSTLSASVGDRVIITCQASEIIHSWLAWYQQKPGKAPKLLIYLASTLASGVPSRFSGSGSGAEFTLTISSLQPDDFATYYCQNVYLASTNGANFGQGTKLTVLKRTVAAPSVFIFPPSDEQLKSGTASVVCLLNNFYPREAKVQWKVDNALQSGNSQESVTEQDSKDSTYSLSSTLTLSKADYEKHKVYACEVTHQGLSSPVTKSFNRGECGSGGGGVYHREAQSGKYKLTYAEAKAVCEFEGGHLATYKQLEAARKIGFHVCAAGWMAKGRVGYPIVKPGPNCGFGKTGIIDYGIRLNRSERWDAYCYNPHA
notes: NVS4 with HA tag at the light chain C-terminus
Consider B9, for which, in assay [6], the affinity, expressed as Kd, was 5.64 pM; the koff stood at 0.000172 s⁻¹; the kon was determined as 3.05e+07 M⁻¹ s⁻¹.

B10: NVS84 (designed binder)
chain: SDLGKKLLEAARAGQDDEVRILMANGADVNTADSTGWTPLHLAVPWGHLEIVEVLLKYGADVNAKDFQGWTPLHLAAAIGHQEIVEVLLKNGADVNAQDKFGKTAFDISIDNGNEDLAEILQKAAGSLPETGGGSGHHHHHH
notes: Untagged anti-VEGF DARPin
In assay [9], B10 came in with a Kd of 419 pM, a koff of 0.00168 s⁻¹ and a kon of 4.01e+06 M⁻¹ s⁻¹.

B11: NVS75T (Fab, V domains shown)
VH: QVQLVESGGGVVQPGRSLRLSCAASGFTFSVYGMNWVRQAPGKGLEWVAIIWYDGDNQYYADSVKGRFTISRDNSKNTLYLQMNGLRAEDTAVYYCARDLRTGPFDYWGQGTLVTVSS
VL: EIVLTQSPDFQSVTPKEKVTITCRASQSIGSSLHWYQQKPDQSPKLLIKYASQSFSGVPSRFSGSGSGTDFTLTINSLEAEDAAAYYCHQSSSLPFTFGPGTKVDIKR
notes: Anti-IL-1β Fab with HA tag; also called NCS75T
For the molecule B11, in [10], the Kd was determined as 14 pM, the koff is 6.9e-05 s⁻¹ and the kon turned out to be 4.95e+06 M⁻¹ s⁻¹.

B12: NVS83 (scFv)
scFv: MEIVMTQSPSTLSASVGDRVIITCQASEIIHSWLAWYQQKPGKAPKLLIYLASTLASGVPSRFSGSGSGAEFTLTISSLQPDDFATYYCQNVYLASTNGANFGQGTKLTVLGGGGGGSGGGGSGGGGSSGGGSEVQLVESGGGLVQPGGSLRLSCTASGFSLTDYYYMTWVRQAPGKGLEWVGFIDPDDDPYYATWAKGRFTISRDNSKNTLYLQMNSLRAEDTAVYYCAGGDHNSGWGLDIWGQGTLVTVSSHHHHHH
notes: also called scFv of NVS4
For B12, in [9], binding was put at a Kd of 6.75 pM, the koff turned out to be 9.18e-06 s⁻¹ and the kon is 1.36e+06 M⁻¹ s⁻¹.

B13: NVS73 (Fab, V domains shown)
VH: EVQLVESGGGSVQPGGSLRLSCTASGFTISRSYWICWVRQAPGKGLEWVGCIYGDNDITPLYANWAKGRFTISRDTSKNTVYLQMNSLRAEDTATYYCARLGYADYAYDLWGQGTTVTVSS
VL: EIVMTQSPSTLSASVGDRVIITCQSSQSVYGNIWMAWYQQKPGRAPKLLIYQASKLASGVPSRFSGSGSGAEFTLTISSLQPDDFATYYCQGNFNTGDRYAFGQGTKLTVLK
notes: Untagged anti-TNFα Fab
On to B13, for which, in assay [11], binding was put at a Kd of 26 pM, the koff was 8.01e-05 s⁻¹ and the kon was found to be 3.08e+06 M⁻¹ s⁻¹.

B14: NVS73T (Fab, V domains shown)
VH: EVQLVESGGGSVQPGGSLRLSCTASGFTISRSYWICWVRQAPGKGLEWVGCIYGDNDITPLYANWAKGRFTISRDTSKNTVYLQMNSLRAEDTATYYCARLGYADYAYDLWGQGTTVTVSS
VL: EIVMTQSPSTLSASVGDRVIITCQSSQSVYGNIWMAWYQQKPGRAPKLLIYQASKLASGVPSRFSGSGSGAEFTLTISSLQPDDFATYYCQGNFNTGDRYAFGQGTKLTVLK
notes: Anti-TNFα Fab with HA tag at heavy chain C-terminus
B14: the Fold improvement in assay [12] worked out at 35 fold. Also, in assay [11], the affinity, expressed as Kd, was 0.742 pM; the koff turned out to be 2.47e-05 s⁻¹; the kon is 3.33e+07 M⁻¹ s⁻¹. Besides, in assay [13], the equilibrium dissociation constant (Kd) is 0.742 pM, the koff was determined as 2.47e-05 s⁻¹ and the kon amounted to 3.33e+07 M⁻¹ s⁻¹.
